One molecule from patent US20250320278A1 (LA JOLLA INSTITUTE FOR IMMUNOLOGY, published 2025) can be followed below.

The target in assay [1] is T1, SARS-CoV-2 N protein, full-length (SARS-CoV-2, UniProt P0DTC9 1-419).
T1 construct: mature; also called SARS-CoV-2 nucleoprotein
The assay can be described thus: Octet, KD (nM) heat map. A general note: BLI is a label-free optical method that tracks binding on a fibre tip over time.

The target in assay [2] is T2, SARS-CoV-2 N protein oligomerization domain (SARS-CoV-2, UniProt P0DTC9 247-364).
T2 construct: also called N olig. domain; OD
The assay can be described thus: Octet, KD (nM) heat map.

B1: NP3-C11 (antibody, V domains shown)
VH: EVQLVESGGGLVRPGGSLKLSCAASGFTFSDYYMYWVRQTPEKRLEWVATISDGGGYNYYPDSVKGRFTVSRDNAKNNLYLQMSSLKSEDTAMYYCVRDKYDGWGSDFDVWGAGTTVTVSS
VL: DIVMTQSPSLMSTSLGERVTMTCTANSSVSSNYMHWYQQKPGSSPKLWIYSTSNLASGVPARFSGSGSGTSYSLTISNMEAEDAATYYCHQFHRSPRTFGGGTKLEIK
With B1, the binding result in assay [1] is “binds”; in assay [2], “no binding”.
